{"source": "paper PMC9585320", "about": "(Frontiers in Molecular Biosciences, 2022)", "molecules": {"B1": {"name": "MazF3 toxin, (His)6MazF(FLAG)3 (natural protein)", "chain": "MRPIHIAQLDKARPVLILTREVVRPHLTNVTVAPITTTVRGLATEVPVDAVNGLNQPSVVSCDNTQTIPVCDLGRQIGYLLASQEPALAEAIGNAFDLDWVVA"}}, "key": {"[1]": {"biological_target": "MazE3 antitoxin, full length, (His)6MazE(FLAG)3 (Mycobacterium tuberculosis) (UniProt O53451)", "assay": "SEC-MALS"}, "[2]": {"biological_target": "MazF9 toxin, (His)6MazF(FLAG)3 (Mycobacterium tuberculosis) (UniProt P71650)", "sequence (P71650 whole entry)": "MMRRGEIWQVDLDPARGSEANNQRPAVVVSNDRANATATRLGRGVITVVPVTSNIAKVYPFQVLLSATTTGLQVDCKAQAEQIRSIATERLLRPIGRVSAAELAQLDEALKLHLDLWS", "assay": "MST"}, "[3]": {"biological_target": "MazF3 toxin, (His)6MazF(FLAG)3 (Mycobacterium tuberculosis) (UniProt P9WIH8)", "assay": "MST"}, "[4]": {"biological_target": "MazF9 toxin, (His)6MazF(FLAG)3 (Mycobacterium tuberculosis) (UniProt P71650)", "assay": "SEC-MALS"}, "[5]": {"biological_target": "MazF6 toxin WT, purified (Mycobacterium tuberculosis) (UniProt P9WII2)", "assay": "SEC-MALS"}, "[6]": {"biological_target": "MazE9 antitoxin, full length, (His)6MazE(FLAG)3 (Mycobacterium tuberculosis) (UniProt P0CL61)", "assay": "SEC-MALS"}, "SEC-MALS": {"biological_target": "the molecule itself", "assay": "SEC-MALS"}, "MazE3 library": {"biological_target": "MazE3 library", "assay": "flow cytometry on cells"}}, "data": [{"molecule": "MazE3 antitoxin, full length, (His)6MazE(FLAG)3 (from UniProt O53451 1-106) (natural protein)", "values": [{"measurement": "stoichiometry N", "setting": "[1]", "value": 2}]}, {"molecule": "C-terminal MazE9 peptide (residues 43-76) (from UniProt P0CL61 43-76)", "values": [{"measurement": "Kd", "setting": "[2]", "value": 5.7, "unit": "nM"}]}, {"molecule": "C-terminal MazE3 peptide (residues 72-106) (from UniProt O53451 72-106)", "values": [{"measurement": "Kd", "setting": "[3]", "value": 299, "unit": "nM"}, {"measurement": "Kd", "setting": "[2]", "value": 200, "unit": "nM"}]}, {"molecule": "MazF9 toxin, (His)6MazF(FLAG)3 (from UniProt P71650 1-118) (natural protein)", "values": [{"measurement": "stoichiometry N", "setting": "[4]", "value": 2}]}, {"molecule": "MazF6 toxin WT, purified (from UniProt P9WII2 1-114) (natural protein)", "values": [{"measurement": "stoichiometry N", "setting": "[5]", "value": 2}]}, {"molecule": "MazE9 antitoxin, full length, (His)6MazE(FLAG)3 (from UniProt P0CL61 1-76) (natural protein)", "values": [{"measurement": "Kd", "setting": "[2]", "value": 8.9, "unit": "nM"}, {"measurement": "stoichiometry N", "setting": "[6]", "value": 2}]}, {"molecule": "B1", "values": [{"measurement": "stoichiometry N", "setting": "SEC-MALS", "value": 2}, {"measurement": "Kd", "setting": "MazE3 library", "value": 1.7, "unit": "nM"}]}]}
